B1: library; the commonest letter at each place (parent)
chain: MKPVTLYDVAEYAGVSYQTVSRVVNQASHVSAKTREKVEAAMAELNYIPNRVAQQLAGKQSLLIGVATSSLALHAPSQIVAAIKSRADQLGASVVVSMVERSGVEACKAAVHNLLAQRVSGLIINYPLDDQDAIAVEAACTNVPALFLDVSDQTPINSIIFSHEDGTRLGVEHLVALGHQQIALLAGPLSSVSARLRLAGWHKYLTRNQIQPIAEREGDWSAMSGFQQTMQMLNEGIVPTAMLVANDQMALGAMRAITESGLRVGADISVVGYDDTEDSSCYIPPLTTIKQDFRLLGQTSVDRLLQLSQGQAVKGNQLLPVSLVKRKTTLAPNTQTASPRALADSLMQLARQVSRLESGQ

± gives the uncertainty stated by the source.

Conditions in all cases: with IPTG
The variants in data set [1] derive from B1. The protocol: (§1)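 LacI variants on the pVER plasmid regulate eYFP behind lacO in E. coli MG1655Δlac, grown in rich M9 at 37 °C with a 2-fold IPTG dilution series. After two 160-min growth steps, YFP is read by flow cytometry and calibrated to MEF. Bayesian MCMC fits of the Hill equation give G0, G∞, EC50 and n (posterior mean ± SD).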
Data set [2] covers variants of B1. In words: Hill coefficient n (dimensionless); higher = steeper dose response. The protocol: as §1
Data set [3] covers variants of B1. Put plainly: basal output G0 (YFP, no IPTG) (log10 MEF); higher = higher reporter expression without inducer. The protocol:
as §1

The variants in data set [4] derive from B1. In words: saturating output G-infinity (YFP) (log10 MEF); higher = higher reporter expression at saturating IPTG. The protocol:
as §1

MKPVTLYDVAEYAGVSYQTVSRVVNQASHVSAKTREKVEAAMAELNYIPNRVAQQLAGKQSLLIGVAISSLALHAPSQIVAAIKSRADQLGASVVVSMVERSGVEACKAAVHNLLAQRVSGLIINYPLDDQDAIAVEAACTNVPALFLDVSDQTPINSIIFSHEDGTRLGVEHLVALGHQQIALLAGPLSSVSARLRLAGWHKYLTRNQIQPIAEREGDWSAMSGFQQTMQMLNEGIVPTAMLVANDQMALGAMRAITESGLRVGADISVVGYDDTEDSSCYIPPLTTIKQDFRLLGQTSVDRLLQLSQGQAVKGNQLLPVSLVKRKTTLAPNTQTASPRALADSLMQLARQVSRLESGQ [T68I]: the “EC50 for IPTG (log10 µmol/L)” value in data set [1] was determined as 1.41 ± 0.045. In addition, the Hill coefficient n in data set [2] was 1.28 ± 0.1. The “basal output G0 (log10)” value in data set [3] worked out at 3.24 ± 0.054. Besides, in data set [4], the “saturating output G-infinity (log10)” value turned out to be 4.419 ± 0.015.

In the case of MKPVTLYDVAEYAGVSYQTVSRVVNQASHVSAKTREKVEAAMAELNYIPNRVAQQLAGKQSLLIGVATTSLALHAPSQILAAIKSRADQLGASVVVSMVERSGVEACKAAVHNLLAQRVSGLIINYPLDDQDAIAVEAACTNVPALFLDVSDQTPINSIIFSHEDGTRLGVEHLVALGHQQIALLAGPLSSVSARLRLAGWHKYLTRNQIQPIAEREGDWSAMSGFQQTMQMLNEGIVPTAMLVANDQMALGAMRAITESGLRVGADISVVGYDDTEDSSCYIPPLTTIKQDFRLLGQTSVDRLLQLSQGQAVKGNQLLPVSLVKRKTTLAPNTQTASPRALADSLMQLARQVSRLESGQ [S69T V80L], the “EC50 for IPTG (log10 µmol/L)” value in data set [1] came out at 1.75 ± 0.025. For the same variant, in data set [2], the Hill coefficient n is 1.38 ± 0.066. Moreover, the “basal output G0 (log10)” value in data set [3] is 1.09 ± 0.68. Besides, the “saturating output G-infinity (log10)” value in data set [4] came to 4.182 ± 0.0044.

In the case of MKPVTLYDVAEYAGVSYQTVSRVVNQASHVSAKTREKVEAAMAELNYIPNRVAQQLAGKQSLLIGVATTSLALHAPSQIVAAMKSRADQLGASVVVTMVERSGVEACKAAVHNLLAQRVSGLIINYPLDDQDAIAVEAACTNVPALFLDVSDQTPINSIIFSHEDGTRLGVEHLVALGHQQIALLAGPLSSVSARLRLAGWHKYLTRNQIQPIAEREGDWSAMSGFQQTMQMLNEGIVPTAMLVANDQMALGAMRAITESGLRVGADISVVGYDDTEDSSCYIPPLTTIKQDFRLLGQTSVDRLLQLSQGQAVKGNQLLPVSLVKRKTTLAPNTQTASPRALADSLMQLARQVSRLESGQ [S69T I83M S97T], the “EC50 for IPTG (log10 µmol/L)” value in data set [1] is 1.957 ± 0.0053. The Hill coefficient n in data set [2] was determined as 1.61 ± 0.017. Further, the “basal output G0 (log10)” value in data set [3] was 1.17 ± 0.54. In addition, the “saturating output G-infinity (log10)” value in data set [4] came out at 4.4073 ± 0.0024.

On to MKPVTLYDVAEYAGVSYQTVSRVVNQASHVSAKTREKVEAAMAELNYIPNRVAQQLAGKQSLLIGVATSSLALHAQSQIVAAIKSRADQLGASVVVSMVERSGVEACKAAVHNLLAQRVSGLIINYPLDDQDAIAVEAACTNVPALFLDASDQTPIDSIIFSHEDGTRLGVEHLVALGHQHIALLAGPLSSVSARLRLAGWHKYLTRNQLQPIAEREGDWSAMSGFQQTMQMLNEGIVPTAMLVANDQMALGATRAITESGLRVGADISVVGYDDTEDSSCYNPPLTTIKQDFRLLGQTSVDRLLQLSQGQAVKGNQLLPVSLVKRKTTLAPNTQTASPRALADSLMQLARQVSRLESGQ [P76Q V150A N157D Q181H I210L M254T I283N], for which the “EC50 for IPTG (log10 µmol/L)” value in data set [1] stood at 2.23 ± 0.046. Also, the Hill coefficient n in data set [2] is 1.11 ± 0.11. The “basal output G0 (log10)” value in data set [3] was 4.237 ± 0.007. In addition, the “saturating output G-infinity (log10)” value in data set [4] was 3.925 ± 0.008.

Take MKPVTLYDVAEYAGVSYQTVSRVVNQASHVSAKTREKVEAAMAELNYIPNRVAQQLAGKQSLLIGVATSSLALHAPSQILAAIKSRADQLGASVVVSMVERSGVEACKAAVHNLLAQRVSGLIINYPLDDQDAIAVEAACTNVPALFLDVSDQTPINSIIFSHEDGTRPGVEHLVALGHQQIALLAGPLSSVSARLRLAGWHKYLTRNQIQPIAEREGDWSAMSGFQQTMQMLNEGIVPTAMLVANDQMALGAMRAITESGLRVGADISVVGYDDTEDSSCYIPPLTTIKQDFRLLGQTSVDRLLQLSQGQAVKGNQLLPVSLVKRKTTLAPNTQTASPRALADSLMQLARQVSRLESGQ [V80L L169P]: the “EC50 for IPTG (log10 µmol/L)” value in data set [1] was 2.47 ± 0.026. Further, the Hill coefficient n in data set [2] is 1.2 ± 0.077. In addition, the “basal output G0 (log10)” value in data set [3] came to 1.86 ± 0.58. In addition, in data set [4], the “saturating output G-infinity (log10)” value turned out to be 3.696 ± 0.0083.

The values above are taken from the supplement of paper PMC10057847, “Precision engineering of biological function with large-scale measurements and machine learning” (PLOS ONE, 2023).
